In US20120027773A1 (AVEO PHARMACEUTICALS, published 2012):

Assays:
[1] = target: T1, delta 160 RON variant (cell surface) (human, UniProt Q04912 25-1400); assay: FACS, 10 ug/ml antibody, HT-29 cells, 4 C
T1 construct: whole, on cells; Splice variant; also called delta 160 variant
Procedure: Binding to cell surface wild-type RON and delta 160 RON at 4° C. was determined for antibodies 07F01, 12B11, 17F06, 18H09, and 29B06, using FACS. Cells expressing wild-type RON (PC3), and cells expressing delta 160 RON (HT-29), were harvested using cell dissociation buffer (Invitrogen), washed twice with FACS buffer (0.5% BSA PBS) and treated with CytoQ Antibody diluent and FC receptor block (Innovex). Purified antibodies were diluted at a concentration of 10 μg/ml, in FACS buffer. Cells were incubated with 100 μl of antibody mix for one hour, washed with FACS buffer three times, and incubated for 45 minutes with goat anti-mouse PE conjugated antibody (Jackson Immunoresearch Laboratories). Cells were washed three times with FACS buffer, resuspended in 300 μl of FACS buffer and analyzed using a Beckman Coulter Cytomics FC 500 FACS instrument.

[2] = target: T2, recombinant human RON SEMA and PSI domains (human, UniProt Q04912 25-571); assay: ECL competition assay: antibody titrated on plate-coated hRON SEMA+PSI; blocked ligand MSP, detected with biotinylated anti-MSP antibody
T2 construct: domain: SEMA+PSI; Commercial protein (R&D Systems); also called rhRON SEMA+PSI; hRON SEMA+PSI
Procedure: (§1) The biochemical neutralization assay measures inhibition of MSP binding to hRON by antibodies in hybridoma supernatants, using electrochemiluminescence (ECL). MA2400 96-well high binding plates (Meso Scale Discovery) were coated with 25 μl of 0.42 μg/mL hRON SEMA+PSI (an N-terminal portion of the ECD of hRON; R&D Systems) in PBS for one hour at room temperature with agitation. The plates were washed four times with PBS+0.1% Tween-20 (PBST), and blocked with 150 μl of charcoal-stripped fetal bovine serum (FBS) (Gibco). The hybridoma supernatant were added and incubated for 45 minutes at room temperature. After incubation, 5 μl of MSP (3 μg/mL) in charcoal stripped FBS was added to each well, and incubated for 45 minutes. The plate was washed four times with PBST, and 25 μl of 1 μg/mL biotinylated anti-MSP antibody (R&D Systems) was added to the plates for one hour at room temperature with agitation. The plates were washed four times with PBST, and incubated with 25 μl of 1 μg/mL ST-streptavidin (Meso Scale Discovery) for one hour at room temperature with agitation. The plates were washed four times with PBST, and 150 μl read buffer (Meso Scale Discovery) was added to each well before the plates were analyzed on a Sector Imager 2400 (Meso Scale Discovery) instrument. Antibodies 07F01, 18H09 and 29B06 each blocked MSP binding to hRON SEMA+PSI in this neutralization assay.
(§2) Antibodies 07F01, 12B11, 17F06, 18H09, and 29B06 were tested for inhibition of MSP binding to hRON SEMA+PSI, as measured by electrochemiluminescence (ECL) assay as described in Example 3. The antibodies (concentration range: 0.006-10 μg/mL) were incubated for 45 minutes at room temperature.

[3] = target: T1, delta 160 RON variant (cell surface); assay: FACS titration on HT29 cells, 4 C
Procedure: (§3) Binding to cell surface human wild-type RON and the delta 160 RON variant by antibodies 29B06 and 07F01 was measured at 4° C., using Fluorescence Activated Cell Sorting (FACS). PC3 cells expressing the human wild-type RON, and HT29 cells expressing the delta 160 variant, were harvested using cell dissociation buffer (Invitrogen), washed twice with FACS buffer (PBS with 0.5% BSA), and treated for 10 minutes with Cyto Q Antibody diluent and FC receptor block (Innovex Biosciences, Richmond, Calif.). Purified antibodies were diluted in FACS buffer over a concentration range from 0.02 nM to 40 nM. Cells were incubated with 100 μl of antibody for one hour, washed with FACS buffer three times, and incubated for 45 minutes with goat anti-mouse PE-conjugated antibody (Jackson ImmunoResearch Laboratories, West Grove, Pa.). Cells were washed three times with FACS buffer, resuspended in 300 μl of FACS buffer, and analyzed using a Beckman Coulter Cytomics FC 500 FACS instrument.

[4] = target: T3, human wild-type RON (cell surface) (human, UniProt Q04912 25-1400); assay: cell-based or functional assay
[5] = target: T3, human wild-type RON (cell surface); assay: FACS titration on PC3 cells, 4 C
Procedure: as §3

[6] = target: T2, recombinant human RON SEMA and PSI …; assay: ECL competition, MSP binding to coated hRON SEMA+PSI; competitor MSP; average n=3
Procedure: as §1, §2

[7] = target: T2, recombinant human RON SEMA and PSI …; assay: SPR, Ab captured on anti-mouse IgG, 25 C, AVG
Procedure: The binding affinities and kinetics of binding of antibodies 07F01, 29B06, 17F06, 18H09, and 12B11 to recombinant human RON-ECD/mFc fusion protein (rhRON ECD/mFc) and recombinant human RON SEMA and PSI domains (rhRON SEMA+PSI) (R&D Systems, Inc., Minneapolis, Minn.) were measured by surface plasmon resonance, using a Biacore T100 instrument (GE Healthcare, Piscataway, N.J.).
Rabbit anti-mouse IgGs (GE Healthcare) were immobilized on carboxymethylated dextran CM4 sensor chips (GE Healthcare) by amine coupling, according to a standard protocol. Analyses were performed at 25° C. and 37° C., using PBS containing 0.05% surfactant P20 as running buffer. The antibodies were captured in individual flow cells at a flow rate of 10 μl/min. Injection time was varied for each antibody to yield an Rmax between 30 and 60 RU. 250 μg/mL mouse Fc were injected at 30 μl/min for 120 seconds to block non-specific binding of antibodies to Fc portion of the protein when needed. Buffer, rhRon ECD/mFc or rhRON SEMA+PSI diluted in running buffer was injected sequentially over a reference surface (no antibody captured) and the active surface (antibody to be tested) for 300 seconds at 60 μl/minute. The dissociation phase was monitored for up to 3600 seconds. The surface was then regenerated with two 60-second injections of 10 mM Glycine-HCl, pH 1.7, at a flow rate of 60 μl/min. The rhRON ECD/mFc or rhRON SEMA+PSI concentration range tested was 0.625 nM to 20 nM.

B1: 07F01 (antibody, mouse IgG1, kappa, V domains shown)
VH: EVKLLESGGGLVQPGGSLKLSCAASGFDFSRHWMSWVRLAPGKGLEWIAEINPDSRTINYTPSLKEKFIISRDNAKNSLFLQMNRVRSEDTALYYCARRVRIHYYGAMDCWGQGTSVTVSS
VL: DIVLTQSQKIVSTSVGARVSVTCKASQNVGSSLVWYQQKPGQSPKTLIYSASFRYSGVPDRFTGSGSGTDFTLTISNVQSEDLADYFCQQYNNYPLTFGAGTKLELKR
notes: Murine hybridoma monoclonal, IgG1/kappa; also called mu07F01; antibody 07F01
For B1, the “HT-29 % cell surface binding” value [1] was 99.1%, the “IC50 (read off the curve)” value [2] was about 0.3 nM and the Kd [3] was 0.024 nM. The “Percent Inhibition of MSP-induced HPAF-II cell migration, antibody 2 ug/ml” value [4] was 95.6%, the Kd [5] was 0.032 nM and the IC50 [6] was 0.26 nM. The Kd [7] was 0.088 nM, the koff [7] was 0.00036 s⁻¹ and the kon [7] was 5.2e+06 M⁻¹ s⁻¹.

B2: 29B06 (antibody, mouse IgG1, kappa)
heavy: EVQLQESGPSLVKPSQTLSLTCSVTGDSITSGYWNWIRKFPGNKLEYMGYISYSGKTYYNPSLKSRISITRDTSKNHYYLQLISVTAEDTATYYCARSKYDYAMDYWGQGTSVTVSSAKTTPPSVYPLAPGSAAQTNSMVTLGCLVKGYFPEPVTVTWNSGSLSSGVHTFPAVLQSDLYTLSSSVTVPSSTWPSETVTCNVAHPASSTKVDKKIVPRDCGCKPCICTVPEVSSVFIFPPKPKDVLTITLTPKVTCVVVDISKDDPEVQFSWFVDDVEVHTAQTQPREEQFNSTFRSVSELPIMHQDWLNGKEFKCRVNSAAFPAPIEKTISKTKGRPKAPQVYTIPPPKEQMAKDKVSLTCMITDFFPEDITVEWQWNGQPAENYKNTQPIMDTDGSYFVYSKLNVQKSNWEAGNTFTCSVLHEGLHNHHTEKSLSHSPGK
light: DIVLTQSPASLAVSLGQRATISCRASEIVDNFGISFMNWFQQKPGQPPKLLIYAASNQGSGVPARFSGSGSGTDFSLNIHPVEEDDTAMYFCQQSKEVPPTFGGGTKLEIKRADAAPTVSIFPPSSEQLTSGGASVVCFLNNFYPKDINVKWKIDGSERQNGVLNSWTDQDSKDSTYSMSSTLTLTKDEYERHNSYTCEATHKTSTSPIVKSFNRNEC
notes: Murine hybridoma monoclonal, IgG1/kappa; also called mu29B06; antibody 29B06
For B2, the “HT-29 % cell surface binding” value [1] was 99%, the “IC50 (read off the curve)” value [2] was about 1 nM and the Kd [3] was 0.146 nM. The “Percent Inhibition of MSP-induced HPAF-II cell migration, antibody 2 ug/ml” value [4] was 96.8%, the Kd [5] was 0.133 nM and the IC50 [6] was 1.11 nM. It also gave a Kd [7] of 0.18 nM, a koff [7] of 7e-05 s⁻¹ and a kon [7] of 420000 M⁻¹ s⁻¹.
